Test results taken from US20250375505A1, “COMPOSITIONS AND METHODS FOR MODIFYING BILE ACIDS TO REGULATE LIPID AND STEROID METABOLISM” (The Regents of the University of California, priority 2021, published 2025).

Key:
CA, CDCA, and DCA = settings: expressed in E. coli C41-pLys
Description: Escherichia coli C41-pLys (Lucigen) was used for characterizing putative bile modification genes, which were expressed off the pET21+plasmid. E. coli was grown acrobically shaking at 37° C. C in Luria Broth (LB, 1% NaCl, 1% tryptone, 0.5% yeast extract) supplemented with 100 μg mL^−1 ampicillin. Expression of genes was induced by addition of 100 μM IPTG.
In vitro characterization of bile transformations by engineered E. coli or B. thetaiotaomicron strains were performed by growing cells in respective media conditions described above supplemented with 0.5 mM (total combined concentration) of the noted bile species. Cells were grown to stationary phase (shaking at 37° C.), then frozen at −80° C. until further processing. Cells were then thawed, pelleted (5 minutes at 16,000×g), and the supernatant was removed to a new microcentrifuge tube. Three volumes of methanol was added, then the mixture was vigorously mixed for 30-60 seconds and incubated (room temperature, 15 minutes). Mixtures were centrifuged (5 minutes, 16,000×g), the supernatant removed to a clean microcentrifuge tube and dried in a vacuum concentrator. The dried residue was treated with methanol/water/formic acid (50/50/0.1, all by volume) then vigorously mixed and centrifuged as described above. […] The effluent from the column was passed through an electrospray ion source (capillary voltage 42V, capillary temperature 275° C., sheath gas flow 15 L min^−1, spray voltage 5 kV, and −15 kV conversion dynode with −1.2 k V multipliers) connected to a linear ion trap mass spectrometer (Thermo LTQ) scanning from m/z 95-1000 in the positive ion mode. Spectra were recorded and analyzed with instrument-manufacturer supplied software. Confirmation of proposed elemental compositions was achieved using the same chromatography and ion source configuration with the spectra recorded by scanning on an orbitrap mass spectrometer (Thermo LTQ XL).

[1] = system: tauro- (TCA, TCDCA) or glyco- (GCA, GCDCA) bile acids; test: Deconjugation by E. coli C41-pLys expressing putative Turicibacter bsh genes (LC-MS); format: cell-based
Description: Control is E. coli with same expression vector but expressing non-bile-modifying gene. d, same as c, but with GCA and GCDCA instead of tauro-bile acids. e, Quantification of percent remaining (compared to media controls) of conjugated bile acid (TCA, TCDCA, GCA, GCDCA) after 24 h growth with E. coli expressing the noted Turicibacter bsh gene. n=3 independent cultures, *p<0.05, **p<0.005, ***p<0.0005 using one sample t-test comparison with 100% remaining. BSH nomenclature indicates homolog group (e.g. III) and isolate of origin (e.g. MOL361).
Conjugation increases bile acid solubility and emulsification ability^45, while deconjugation reverses these effects, leading to decreased dietary lipid absorption. To identify Turicibacter bile salt hydrolase (bsh) genes responsible for the strain-specific differences in bile deconjugation, the study first searched our assembled genomes for annotations of “choloylglycine hydrolase,” the broad category that includes these genes. […] Isolates within the same phylogenetic and phenotypic subgroups largely shared similar sequences (FIG. 11a, b). To assay the function of the strain-specific putative bsh genes, the study cloned and individually expressed one representative sequence from each of the eight putative choloylglycine hydrolase groups in E. coli C41-pLys and measured the ability of these engineered bacteria to perform the deconjugations the study observed in the native Turicibacter. The study cultured the individual E. coli strains to stationary phase in the presence of two tauro-(TCA, TCDCA) or glyco-(GCA, GCDCA) bile acids, then measured their ability to deconjugate these bile acid pools. […] Collectively, these findings reveal that Turicibacter strains contain a range of bile salt hydrolases with deconjugation preferences for different bile acids.
For bile species quantification, an internal spike-in standard of 100 mM chenodeoxycholic acid-D4 (CDCA-D4, Sigma) was added to initial culture supernatants as a normalization reference. Area under the curve from reconstructed ion chromatograms was used to quantify the abundances of each species.

[2] = expressed in E. coli C41-pLys, grown with two tauro- (TCA, TCDCA) or glyco- (GCA, GCDCA) bile acids

Molecule	bile salt hydrolase (deconjugation) activity [1, 2]	also measured
7α-HSDH homolog from MOL361: 7-alpha hydroxysteroid dehydrogenase homolog of MOL361, locus tag HLK68_RS02750, SEQ ID NO: 9, expressed in E. coli C41-pLys (protein, listed as Turicibacter sanguinis) MRKLENAIALVTSSTRGIGLACAKKLASEGAIVYMGVRRLEVTQEICDEVAKEGLKMKPVFFDAYNIDSYETMVEEVIREQGKIDILVNNFGTGRPEVDLDLVSGDEKAFFDILEANIGSVYRISKLVIPHMIKQGKGSIVNISSIGGTVPDISRIGYGVSKAGVNNITQQIAMQYARYNIRCNAVLPGLTATDAALDNMPEQFIKSFLSHVPLNRMGTPEDMANAVLFFASDDSSYVTGDIMEVSGGYHLGTPQYADFVGRKVVEEK		dehydrogenation of CA (CA, CDCA, and DCA; grown in CA): removed the mass equivalent of two hydrogens from CA; dehydrogenation of CDCA (CA, CDCA, and DCA; grown in CDCA): Background transformation by E. coli prevented clear evidence of CDCA dehydrogenation; dehydrogenation of DCA (CA, CDCA, and DCA; grown in DCA): did not act on DCA
BSH (group IV): bile salt hydrolase group IV from Turicibacter sanguinis MOL361, SEQ ID NO: 4 (protein, listed as Turicibacter sanguinis) MCTALSLTAKDGSHLFGRNMDIEYSFNQSILLTPRRFDYKNRATGEMNQTKYAIIGMGTIIDEHPCYAELFNEKGLAAAGLNFPNYAHWDEKAIEGKTNIPPYDLVLWVTSNFETVKEVKEALKDVVLVDVPVNEQTPIAPLHWMICDKTGESIVVEKTVNGLSVMDNKVGVLTNAPTFDWHLTNLTQYMGLTSTQPKDITLGEQELHPLGQGLGAFSLPGDYSSPSRFVKAAFLRNNIDYANVNYSGISEFFHILNGVAMVRGSVVTPQHLNDITLYTSCMDQERGIYYYNTYTNHTISSINMHNEDLDAKEIKSFKFNDEFAVNLQN	tauro-specific	
BSH (group I): bile salt hydrolase group I from Turicibacter sanguinis MOL361, SEQ ID NO: 1 (protein, listed as Turicibacter sanguinis) MCTGLSLVTKDNKHLFGRNLDVPATYGQAVHIVPRNYDWFNIVSDETYTSKYACIGMGIVVDRLPLLFDAVNEKGLAGAGLNFTHFAKFNEKAVDGKTNISGSTFLYWALSNFSNLDELKEALKQLIITNIPVKEGLPVAGLHWMFTDLSGKSIVIEYMEDGMHVYDNPVGALTNDPTFPWHLTNLCQYVTLDTKTPAPKQFGEYVAKPFGHGLNMCGIPGDASPAARFVRTVYFRDTVVEADDEVSGVSAFFQVLTGVTVIKGSEIDPNGDMNYTVYKSCMCQESGTYYYTDYKNRRISAVCLSKADLDGKEIISFEYQGKQDILFQN	deconjugates both glyco- and tauro-conjugates	
BSH (group III): bile salt hydrolase group III from Turicibacter sanguinis 1E2, SEQ ID NO: 3 (protein, listed as Turicibacter sanguinis) MCTGLCLSTKDGKHLFGRNLDVPASYNQAVQIVPRNFKWLNVATQETITSKYACIAMGIVIDNHPLLFDGVNEKGLAGGGLNFTHFAKFSSTAVKDKISLSASDFVYWVLSTFSSLSELKETLPSVILTSIPFKPDLPVAGLHWIFTDKTGESIVIEYMEDGMHIHDNPVGVLTNDPTFDWQLTNLSQYVTLSCKTPQPEEMGNLLVKPFGHGLGMCGIPGDGSPAARFVRTVFFRDAVVGADDEISGVTAFFNVLSEVTVMKGSEIDPDGSMNFTVYKSAMCQESQTYYYTDYYNRRINAVKLTPDTMNADHITTFPYLGKQDICYQN	moderate activity on TCDCA	
BSH (group II): bile salt hydrolase group II from Turicibacter sanguinis H121, SEQ ID NO: 2 (protein, listed as Turicibacter sanguinis) MCTGLSLTTKDGKHFFGRNLDVPASYGQSVHIIPRNFNWLNVVNGETLASKYACIGMGIVVDNHPLLFDAVNEKGLAGGGLNFTHFAKFNENAIDGKINISASDFVYWALSNFADLNELRQALENLVLTNIPFEHELPVAGLHWMFTDLSGRSIVIENMADGMHIHENPVGVLTNDPTFDWHLTNLRQYVTLEKATPAPKQMGDLLLHPYGHGLGMCGIPGDASPAARFVRTVFFRDSIVEANDEISGVTAFLNVLTGVTVIKGSEVDPDGSMNYTVYKSAMCQESGTYYYTDYYNRRINAVKLSNANLDSKEITSFPYQGEQDILFQN	activity on TCDCA and GCDCA	bile salt hydrolase (deconjugation) activity ([1]; expressed in E. coli, presented with the combined four bile acids): blunted
